In article PMC3149649, “Evidence for a Two-Metal-Ion Mechanism in the Cytidyltransferase KdsB, an Enzyme Involved in Lipopolysaccharide Biosynthesis” (PLoS ONE, 2011):

Substrate: Nc1ccn([C@@H]2O[C@H](COP(=O)(O)OP(=O)(O)OP(=O)(O)O)[C@@H](O)[C@H]2O)c(=O)n1
Experiment: discontinuous CMP-Kdo formation assay (Ray et al.), non-linear Michaelis-Menten fit
Assay type: biochemical, Aquifex aeolicus
Details: co-substrate Kdo held constant (>5 x Km), 10 mM MgCl2 (typical mixture), 100 mM glycine-NaOH pH 9.0, 50°C

B1: AA-LCKS (LPS-specific CMP-Kdo synthetase, KdsB) (Aquifex aeolicus VF5) (protein)
chain: MRRAVIIPARLGSTRLKEKPLKNLLGKPLIRWVVEGLVKTGERVILATDSERVKEVVEDLCEVFLTPSDLPSGSDRVLYVVRDLDVDLIINYQGDEPFVYEEDIKLIFRELEKGERVVTLARKDKEAYERPEDVKVVLDREGYALYFSRSPIPYFRKNDTFYPLKHVGIYGFRKETLMEFGAMPPSKLEQIEGLEQLRLLENGIKIKVLITENYYHGVDTEEDLKIVEEKLKNL
notes: recombinant from plasmid pT7-kdsB in E. coli BL21-CodonPlus(DE3)-RIL; no tag mentioned; monomer 27 kDa, gel filtration 53 kDa, homodimer
Km: 160 ± 4 µM
kcat: 9.5 ± 0.5 s⁻¹
